Six molecules from article PMC7793253, “CEP290 is essential for the initiation of ciliary transition zone assembly” (PLoS Biology, 2020) can be followed below.

Residue numbers refer to the chain shown, from its start. Names may count otherwise.

The chains are these.
B1: GST-DZIP1-C (aa 294–737) (domain or fragment, Drosophila, UniProt Q9VC70 294-737, looked up)
chain: DINKRLEGLSHALEQSKQASASTPPLEDRVATPCLEDLERILTEKVAEIGKVSAHRLEEVVYHLEEGYKEKLGALERELKQLSVQKVQPEPVQTVPVASKIPKPVVRKEETNIDRIRKQVESEFLKQKHDDDTYSIEEAPRKGSEKPFPQLVTQVQVVEKEQPSAGSSDSNPTYTKSPREPAPNKQETKEATDVSDSLSQEETENEEERSLTEEEGTDVPTSGSEAAREDPTPKTIKPSGRIIKSPQKPLTRKDARKMVNRKLMSHGFDMKSKGISHNSLKRVNSELTEHRNKLKLQHPHFYATRNRIRKFVEKLCSAKFSERAEMLLKHKSPLKPMEVPGKGIPRSAISEKSEEDIASSQGEEQTDEQTDSSEQQTRSPSPQRLVSRDFKARLEEILVKPAATIRGASKSSLSSRPVPLPRKRVMFNTTEDGKSFNDSDDNLK
notes: Cloned into pGEX-4T-1; also called C-terminus of DZIP1; source: E. coli BL21 (DE3), purified (Glutathione Sepharose)
B2: GST-DZIP1-N (aa 1–293) (domain or fragment, Drosophila, UniProt Q9VC70 1-293, looked up)
chain: MGFKGKYPQMVRETGFKLRQYRDGPLDWRLMGSYETERILREQNFELVDKALTHLSEAPLGTVLETHILDSGIAKYFVMSQYAIQYLMCCRTYLDECVTDLKEAHTTAQEEIATLRKSLSESNNEVVQLHKRITQIEAIREVVYPCHLCTKNFISNEALNVHIGRKHRVASPPSLTSATGKEKDRDKATDVHLINTIKMELEIKQLKERLNAAERNIKERSTGSKRVSPRQEQRHVGIQSNLAEPKEKDEDSGEARQSEASERKEQLTGLAERLSNFEEWQTQLKQSNEQFIQ
notes: Cloned into pGEX-4T-1; also called N-terminus of DZIP1; source: E. coli BL21 (DE3), purified (Glutathione Sepharose)
B3: His-Rab8 (natural protein, Drosophila, UniProt O18338 1-207, looked up)
chain: MAKTYDYLFKLLLIGDSGVGKTCILFRFSEDAFNTTFISTIGIDFKIRTIELDNKKIKLQIWDTAGQERFRTITTAYYRGAMGIMLVYDITQEKSFENIKNWIRNIEENASADVEKMLLGNKCELTDKRQVSKERGEQLAIEYGIKFMETSAKASINVEEAFLTLASDIKAKTEKRMEANNPPKGGHQLKPMDSRTKDSWLSRCSLL
notes: Drosophila Rab8; Cloned into pET28a; source: E. coli BL21 (DE3), purified (His resin)
B4: His-Rab8^T22N (natural protein, Drosophila, UniProt O18338 1-207, looked up)
chain: B3 chain with T22N
notes: Drosophila Rab8 with T22N; Cloned into pET28a; also called Rab8^GDP-mimicking mutant; source: E. coli BL21 (DE3), purified (His resin)
B5: CEP290 N (aa 651–887) (domain or fragment, Drosophila, UniProt Q9W0M1 651-887, looked up)
chain: EHPVEEDAVLNTATRPSSPTEATMGLRRPTVPDPEEKPTNEALAELSILRKHYDELRLHMSADGSDLMNRNQELHDQMIALELQLEQQRNSYSYMRRDYDQLLTETRKQELRFIDDKASLARQLEHSKSELCEAREELEQVNRRNLYTAEEQQKLEHRNAILSMQLGQAMEQLLGELKPTEICAEYGIIRENYQLDYITAQDFEEQQQELLTWRSKQAELQRETKQLEGLLHVANEQ
notes: Drosophila centrosomal protein 290 (CEP290); This construct is not described in the methods; probably His-tagged and made in E. coli like His-CEP290-N
B6: CEP290 N (aa 401–650) (domain or fragment, Drosophila, UniProt Q9W0M1 401-650, looked up)
chain: GLIPALRRCSGLEQKVAARDKQLRAYIQELNSLHEVVQENELLRRKLHIPDDVVIMAKNVHSKQRNKDKQIERLTLKLRTSEELRLQLKLEKSELRRKLLELQQDSPQTLNESLQAPSEVGEVPHSVHLENSPRRGQGDGAASSEMQNRYDEVLAENETLRSGMYEILEKLREYDATSEHITIDSDLLRRLIEALPGGTTTPQRLQGQLLELKAREEALRQLLEQQNYSDSETGELSSVHSLCEVPEIAE
notes: as for B5

Common to all, as to experiment: pull-down; GST pull-down: purified His-tagged proteins incubated with GST, GST-DZIP1-N or GST-DZIP1-C in 25 mM Tris-HCl pH 7.4, 150 mM NaCl, 0.5% Triton X-100, 1 mM dithiothreitol, 10% glycerol, overnight at 4°C; blot with anti-His antibodies
What all share (settings): both partners purified

For assay [1], the target named is T1, His-CEP290-N (aa 1–887) (Drosophila, UniProt Q9W0M1 1-887).
T1 construct: Drosophila centrosomal protein 290 (CEP290); Cloned into pET28a; also called CEP290 N-terminus; source: E. coli BL21 (DE3), purified (His resin)
T1 sequence (looked up): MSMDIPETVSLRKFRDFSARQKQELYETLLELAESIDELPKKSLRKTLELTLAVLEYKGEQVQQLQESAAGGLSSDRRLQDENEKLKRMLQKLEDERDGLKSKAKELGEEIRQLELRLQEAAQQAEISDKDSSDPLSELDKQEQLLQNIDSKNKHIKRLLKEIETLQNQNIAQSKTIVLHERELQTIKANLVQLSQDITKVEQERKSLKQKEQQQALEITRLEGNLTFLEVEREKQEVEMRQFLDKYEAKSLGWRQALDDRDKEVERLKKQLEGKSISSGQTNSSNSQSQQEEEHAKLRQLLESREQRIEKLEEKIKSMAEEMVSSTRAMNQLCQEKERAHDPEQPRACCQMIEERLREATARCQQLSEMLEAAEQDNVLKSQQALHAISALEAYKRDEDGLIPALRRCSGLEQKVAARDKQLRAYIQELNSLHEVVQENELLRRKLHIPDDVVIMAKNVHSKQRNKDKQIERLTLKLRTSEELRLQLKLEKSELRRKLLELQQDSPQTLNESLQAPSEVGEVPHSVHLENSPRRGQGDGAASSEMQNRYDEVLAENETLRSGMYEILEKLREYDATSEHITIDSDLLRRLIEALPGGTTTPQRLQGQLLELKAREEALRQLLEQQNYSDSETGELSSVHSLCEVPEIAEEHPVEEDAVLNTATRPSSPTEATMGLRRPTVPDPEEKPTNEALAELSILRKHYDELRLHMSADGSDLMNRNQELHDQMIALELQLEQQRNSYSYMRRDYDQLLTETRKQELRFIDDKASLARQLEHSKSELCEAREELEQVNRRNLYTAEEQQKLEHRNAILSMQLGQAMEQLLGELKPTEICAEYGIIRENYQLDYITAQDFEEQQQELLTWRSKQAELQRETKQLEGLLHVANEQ

In assay [2] the target is B2.
Assay [3] concerns the target B1.

B1: in assay [1], the binding result is “binds”.

Turning to B2, in assay [1], the binding result is recorded as “binds”.

For the molecule B3, the binding result in assay [2] is given as “binds”.

On to B4, for which the binding result in assay [2] is listed as “binds”.

For B5, the binding result in assay [3] and in assay [2] was “binds” throughout.

For B6, the binding result in assay [2] is reported as “binds”.
